Where a chain is given by its changes, count along the chain named.

The nature of data set [1]: Circular dichroism thermal denaturation. The note with it: stable α-helical structure, PBS pH 7.4, heated from 0-98° C. The data set is classed as physicochemical. As for the experimental part:
Circular dichroism experiments were performed on an Aviv 62A DS circular dichroism spectrometer. Measurements from […] were performed in a 10 μM solution of protein sample in PBS (50 mM Na phosphate, 150 mM NaCl, pH 7.4) in a 1-mm path-length cuvette. Thermal denaturation was performed in a 10 mm path-length cuvette and samples were heated from 0-98° C., with equilibration times of 2 minutes and an averaging time of 1 minute. Protein concentrations were determined by absorbance at 280 nm in 20 mM phosphate-buffered 6M guanidine-hydrochloride (pH 6.5) (H. Edelhoch, Biochemistry 6, 1948-54 (1967)).

A short description of data set [2]: Solubility in physiological buffers. The data set is classed as physicochemical.
The target of data set [3] is T1, Bcr-Abl (Homo sapiens, UniProt P00519+P11274).
T1 construct: c-Abl portion (ABL1, fusion partner)
T1 sequence (P11274 1-426 limits assumed): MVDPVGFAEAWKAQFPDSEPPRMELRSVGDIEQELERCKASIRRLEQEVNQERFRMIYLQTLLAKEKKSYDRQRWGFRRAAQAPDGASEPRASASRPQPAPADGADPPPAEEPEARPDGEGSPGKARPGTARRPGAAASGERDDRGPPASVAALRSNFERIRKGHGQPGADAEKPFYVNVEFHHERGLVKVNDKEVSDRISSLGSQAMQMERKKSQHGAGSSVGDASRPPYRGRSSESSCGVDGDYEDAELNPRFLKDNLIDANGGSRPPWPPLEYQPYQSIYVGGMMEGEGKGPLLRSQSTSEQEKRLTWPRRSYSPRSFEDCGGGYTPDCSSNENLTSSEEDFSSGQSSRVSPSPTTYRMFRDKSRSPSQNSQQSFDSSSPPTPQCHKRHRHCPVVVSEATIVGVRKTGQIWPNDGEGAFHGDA
The note with it: literature reports (Guo 1998; Wu 1999); cited from earlier work.

The test system of data set [4] is Bcr-Abl transformation of Rat-1 fibroblasts. Briefly: Rat-1 focus-formation assay. The data set is classed as cell-based. The conditions noted are these: Rat-1 fibroblasts cotransfected with MIG-P210 and increasing doses of plasmid B74; foci counted after 3 weeks. As for the experimental part:
FIG. 5 is a graphic representation of results of a Rat-1 focus-formation assay. Data shown are the average of three dishes and are representative of four independent experiments. Error bars indicate the standard deviation of foci numbers between the experiments.
Whether the Bcr-Abl oligomerization domain inhibits full-length Bcr-Abl oligomerization in a dominant-negative manner was assessed. […] The total number of transformed foci was quantified after 3 weeks. Transected cultures were stained with 0.4% crystal violet to better visualize transformed foci.
For expression in mammalian cells, Bcr1-74 fragments were PCR amplified from pMBP/Bcr1-74 (with the optimal E. coli codons) as mentioned above, and inserted into the retroviral expression vector pMX-IRES-GFP (X. Liu et al., Anal Biochem 280, 20-28 (2000)) using BamHI and NotI sites. The resulting plasmid was denoted p74-IES-GFP (B74). Although it has been reported that the Bcr oligomerization domain as contained in residues 1-71 (SEQ ID NO: 19; SEQ ID NO: 20) of the Bcr protein cannot be stably expressed in mammalian cells (C. L. Sawyers, N Engl J Med 340, 1330-40 (1999)), a fair amount of Bcr1-74 (SEQ ID NO: 7) protein was detected by Western blotting when B74 was expressed in vivo. It is possible that use of E. coli-optimized codons improved expression in this domain. […] The total number of transformed foci was counted after 3 weeks.

Data set [5] has as its target Bcr1-72C38A (Bcr-Abl oligomerization domain, residues 1-72 of human Bcr, Cys38 mutated to Ala), monomer chain (human). Briefly: X-ray crystal structure, interface analysis.
The target is the same in data set [6]. Briefly: X-ray crystal structure, buried surface.
Data set [7] concerns the target Bcr1-72C38A dimer (domain-swapped antiparallel coiled-coil dimer seen in the crystal) (human). The data set can be described thus: X-ray crystal structure, buried surface.

Regarding “Ac-DIEQELERCKASIRRLEQEVNQERFRMIYLQTLLAK-NH2 [Bcr30-65]”, the “midpoint of thermal denaturation (Tm)” value in data set [1] was determined as 60 °C. The “solubility in physiological buffers” value in data set [2] is recorded as “poor solubility”.

B1: N-terminal 160 amino acids of Bcr: N-terminal 160 amino acids of Bcr, which contain the oligomerization domain (literature) (protein, UniProt P11274 1-160, looked up, fragment)
chain: MVDPVGFAEAWKAQFPDSEPPRMELRSVGDIEQELERCKASIRRLEQEVNQERFRMIYLQTLLAKEKKSYDRQRWGFRRAAQAPDGASEPRASASRPQPAPADGADPPPAEEPEARPDGEGSPGKARPGTARRPGAAASGERDDRGPPASVAALRSNFER
In the case of B1, in data set [3], the Bcr-Abl transformation entry was “inhibit Bcr-Abl transformation”.

B2: Bcr1-74: Residues 1-74 of human Bcr; expressed in Rat-1 cells from retroviral plasmid B74 (p74-IRES-GFP) (protein, UniProt P11274 1-74, looked up, fragment)
chain: MVDPVGFAEAWKAQFPDSEPPRMELRSVGDIEQELERCKASIRRLEQEVNQERFRMIYLQTLLAKEKKSYDRQR
Take B2: the “transforming potential of Bcr-Abl (number of transformed foci)” value in data set [4] is reported as “inhibited the transforming potential of Bcr-Abl”.

B3: full-length Bcr: Full-length human Bcr protein, 1271 amino acids (literature) (protein, UniProt P11274 1-1271, looked up)
chain: MVDPVGFAEAWKAQFPDSEPPRMELRSVGDIEQELERCKASIRRLEQEVNQERFRMIYLQTLLAKEKKSYDRQRWGFRRAAQAPDGASEPRASASRPQPAPADGADPPPAEEPEARPDGEGSPGKARPGTARRPGAAASGERDDRGPPASVAALRSNFERIRKGHGQPGADAEKPFYVNVEFHHERGLVKVNDKEVSDRISSLGSQAMQMERKKSQHGAGSSVGDASRPPYRGRSSESSCGVDGDYEDAELNPRFLKDNLIDANGGSRPPWPPLEYQPYQSIYVGGMMEGEGKGPLLRSQSTSEQEKRLTWPRRSYSPRSFEDCGGGYTPDCSSNENLTSSEEDFSSGQSSRVSPSPTTYRMFRDKSRSPSQNSQQSFDSSSPPTPQCHKRHRHCPVVVSEATIVGVRKTGQIWPNDGEGAFHGDADGSFGTPPGYGCAADRAEEQRRHQDGLPYIDDSPSSSPHLSSKGRGSRDALVSGALESTKASELDLEKGLEMRKWVLSGILASEETYLSHLEALLLPMKPLKAAATTSQPVLTSQQIETIFFKVPELYEIHKEFYDGLFPRVQQWSHQQRVGDLFQKLASQLGVYRAFVDNYGVAMEMAEKCCQANAQFAEISENLRARSNKDAKDPTTKNSLETLLYKPVDRVTRSTLVLHDLLKHTPASHPDHPLLQDALRISQNFLSSINEEITPRRQSMTVKKGEHRQLLKDSFMVELVEGARKLRHVFLFTDLLLCTKLKKQSGGKTQQYDCKWYIPLTDLSFQMVDELEAVPNIPLVPDEELDALKIKISQIKNDIQREKRANKGSKATERLKKKLSEQESLLLLMSPSMAFRVHSRNGKSYTFLISSDYERAEWRENIREQQKKCFRSFSLTSVELQMLTNSCVKLQTVHSIPLTINKEDDESPGLYGFLNVIVHSATGFKQSSNLYCTLEVDSFGYFVNKAKTRVYRDTAEPNWNEEFEIELEGSQTLRILCYEKCYNKTKIPKEDGESTDRLMGKGQVQLDPQALQDRDWQRTVIAMNGIEVKLSVKFNSREFSLKRMPSRKQTGVFGVKIAVVTKRERSKVPYIVRQCVEEIERRGMEEVGIYRVSGVATDIQALKAAFDVNNKDVSVMMSEMDVNAIAGTLKLYFRELPEPLFTDEFYPNFAEGIALSDPVAKESCMLNLLLSLPEANLLTFLFLLDHLKRVAEKEAVNKMSLHNLATVFGPTLLRPSEKESKLPANPSQPITMTDSWSLEVMSQVQVLLYFLQLEAIPAPDSKRQSILFSTEV
modifications: full-length
For B3, the Bcr-Abl transformation entry in data set [3] was “inhibit Bcr-Abl transformation”.

B4: Bcr1-72C38A (Bcr-Abl oligomerization domain, residues 1-72 of human Bcr, Cys38 mutated to Ala), monomer chain (protein, UniProt P11274 1-72 with C38A, looked up)
chain: MVDPVGFAEAWKAQFPDSEPPRMELRSVGDIEQELERAKASIRRLEQEVNQERFRMIYLQTLLAKEKKSYDR
modifications: oligomerization domain residues 1-72 selenomethionine form also used
Turning to B4, in data set [5], the hydrogen bonds in the dimer interface (hydrogen bonds) is 3, the salt bridges in the dimer interface turned out to be 7 salt bridges and the van der Waals contacts in the dimer interface (radius cutoff 4 Å) stood at 217 contacts. In data set [6], this molecule had a solvent-accessible surface buried upon dimer formation of 4200 Å^2.

B5: Bcr1-72C38A dimer (domain-swapped antiparallel coiled-coil dimer seen in the crystal) (protein, UniProt P11274 1-72 with C38A, looked up)
chain: B4 chain
modifications: oligomerization domain residues 1-72, homodimer
For the molecule B5, the solvent-accessible surface buried upon association of two dimers in data set [7] was 3400 Å^2.

B6: Bcr1-72: Recombinant wild-type polypeptide, residues 1-72 of the N-terminus of human Bcr (oligomerization domain) (protein, UniProt P11274 1-72, looked up, fragment)
chain: B4 chain with A38C
Turning to B6, the “midpoint of thermal denaturation (Tm)” value in data set [1] amounted to 84 °C.
